Patent US20230340429A1, “STEVIOL GLYCOSIDE HEXOSE TRANSFERASE AND GENE CODING FOR SAME” (SUNTORY HOLDINGS LIMITED, priority 2016, published 2023)

Columns and labels:
[1] = in vitro glucosylation activity (GlcT) of Escherichia coli-expressed UGT protein with UDP-glucose; type: biochemical; details: recombinant protein, 30° C. 1 hour, LC-MS
Method: (§1) The standard enzymatic reaction conditions are as follows. A reaction solution (2 mM UDP-glucose, 0.1 mM sugar receptor substrate, 100 mM potassium phosphate buffer (pH 7.5), 25 μl of purified enzyme solution) was prepared to 50 μl with distilled water and incubated at 30° C. for 1 hour to react. The LC-MS analysis of 5 μl of the enzymatic reaction solution was carried out under the following conditions.
(§2) • Column: Imtakt SM-C18 3.0 um 4.6 mm I.D.×250 mm • Mobile phase: A: MilliQ Water (+0.2% acetic acid), • B: Methanol • Gradient: 0 to 5 min (B conc 10% constant), 5 to 20 min (B conc 10%→70%), 20 to 25 min (B conc 70%→100%), 25 to 35 min (B conc 100% constant), 35 to 36 min (B conc 100%→10%), 45 min end of analysis • Flow rate: 0.4 mL/min • Column oven: 40° C.
(§3) Evaluation of Mutants 1 and 2 was then made using the protein expressed in Escherichia coli in the same manner as in Example 4. The glucosylation activity (GlcT) and the rhamnosylation activity (RhaT) were evaluated using UDP-glucose and UDP-rhamnose, respectively, as the sugar donor and using rubusoside as the substrate, which is a sugar receptor. Stevioside and dulcoside A were produced as the reaction products in the former and in the latter, respectively.

[2] = in vitro rhamnosylation activity (RhaT) of Escherichia coli-expressed UGT protein with UDP-rhamnose; type: biochemical; details: recombinant protein, LC-MS
Method: as §1, §2, §3

[3] = test system: Saccharomyces cerevisiae strain YPH499; test: Production of Reb.C from steviol in yeast coexpressing UGTs and AtRHM2; type: cell-based; details: yeast coexpressing UGT85C2, UGT74G1, UGT76G1 and AtRHM2; 0.5 μg or 2 μg of steviol per 1 ml; HPLC, LC-MS
Text: [Example 5] RebC synthesis by fermentative production using yeast Various steviol glycosides were produced from steviol in yeast. First, yeast that simultaneously expresses the 4 glycosylation enzyme genes UGT85C2 (SEQ ID NO: 7), UGT91D2 (SEQ ID NO: 3), UGT74G1 (SEQ ID NO: 9), and UGT76G1 (SEQ ID NO: 11) or the 4 genes UGT85C2, UGT91D2L #16, UGT74G1, and UGT76G1 from Stevia rebaudiana and the UDP-rhamnose synthase gene AtRHM2 (SEQ ID NO: 13) from Arabidopsis thaliana has been created.
The plasmids set forth in Table 1 were introduced into the Saccharomyces cerevisiae strain YPH499 (ura3-52 lys2-801^amber ade2-101^ochre trp1-Δ63 his3-Δ200 leu2-Δ1 a) as a host by the lithium acetate method. Those that grew on SC-Trp&Ura&His agar medium (6.7 g of Yeast nitrogen base without amino acids, 20 g of glucose, 1.3 g of amino acid mixture powder Trp&Ura&His, 20 g of Bacto agar, per 1 L) were selected as transformant strains.
First, 10 ml of SC-Trp&Ura&His liquid medium (SC-Trp&Ura&His agar medium without Bacto agar) was inoculated each transformant strain as a preculture and cultured with shaking at 30° C. for 1 day. […]
The obtained glycoside sample was analyzed with high performance liquid chromatography (HPLC). […]

Row | Molecule | activity to glucosylate rubusoside to produce stevioside [1] | activity to rhamnosylate rubusoside to produce dulcoside A [2] | amount of Reb.C produced [3]
1 | UGT91D2: known Stevia rebaudiana UDP sugar-dependent glycosyltransferase, amino acid sequence SEQ ID NO: 4 (protein, listed as Stevia rebaudiana) MYNVTYHQNSKAMATSDSIVDDRKQLHVATFPWLAFGHILPYLQLSKLIAEKGHKVSFLSTTRNIQRLSSHISPLINVVQLTLPRVQELPEDAEATTDVHPEDIPYLKKASDGLQPEVTRFLEQHSPDWIIYDYTHYWLPSIAASLGISRAHFSVTTPWAIAYMGPSADAMINGSDGRTTVEDLTTPPKWFPFPTKVCWRKHDLARLVPYKAPGISDGYRMGLVLKGSDCLLSKCYHEFGTQWLPLLETLHQVPVVPVGLLPPEIPGDEKDETWVSIKKWLDGKQKGSVVYVALGSEVLVSQTEVVELALGLELSGLPFVWAYRKPKGPAKSDSVELPDGFVERTRDRGLVWTSWAPQLRILSHESVCGFLTHCGSGSIVEGLMFGHPLIMLPIFGDQPLNARLLEDKQVGIEIPRNEEDGCLTKESVARSLRSVVVEKEGEIYKANARELSKIYNDTKVEKEYVSQFVDYLEKNARAVAIDHES | production of stevioside | production of dulcoside A | Reb.C was produced
2 | UGT91D2L #16: novel Stevia rebaudiana UGT highly homologous with UGT91D2, amino acid sequence SEQ ID NO: 2 (protein, listed as Stevia rebaudiana) MYNVTYHQNSKAMATSDSIVDDRKQLHVATFPWLAFGHILPFLQLSKLIAEKGHKVSFLSTTRNIQRLSSHISPLINVVQLTLPRVQELPEDAEATTDVHPEDIPYLKKASDGLQPEVTRFLEQHSPDWIIYDYTHYWLPSIAASLGISRAHFSVVTPWAIAYMGPSADAMINGSDGRTTVEDLTTPPKWFPFPTKVCWRKHDLARLVPYKAPGISDGYRMGLVLKGSDCLLFKCYHEFGTQWLPLLETLHQVPVVPVGLLPPEIPGDEKDETWVSIKKWLDGKQKGSVVYVALGSEALVSQTEVVELALGLELSGLPFVWAYRKPKGPAKSDSVELPDGFVERTRDRGLVWTSWAPQLRILSHESVCGFLTHCGSGSIVEGLMFGHPLIMLPLFGDQPLNARLLEDKQVGIEIPRNEEDGCLTKESVARSLRSVVVENEGEIYKANARELSKIYNDTKVEKEYVSQFVDFLEKNARAVAIDHES | weaker than SrUGT91D2 | markedly higher than SrUGT91D2 | higher than that in the strain A-5678 expressing UGT91D2
